According to patent US20170233497A1:
Changes are numbered by the printed parent chain. Numbers in names are those of the source. Values belong to the binder of their own block, whether it stands above or below them.

Target: IgG1Δhinge fragment of IgG1-7D8-K409R (human)
Experiment: native mass spectrometry; CH2-CH3 fragment mixed 24 h with the IgG1Δhinge fragment of IgG1-7D8-K409R (heterodimer)

Kd: 12 nM
B1: CH2-CH3 fragment of human IgG1 with F405L, P01857 224-330 (protein, UniProt P01857-1 224-330, looked up, name in EU numbering, not shown: small tags and cut ends)
chain: GQPREPQVYTLPPSRDELTKNQVSLTCLVKGFYPSDIAVEWESNGQPENNYKTTPPVLDSDGSFLLYSKLTVDKSRWQQGNVFSCSVMHEALHNHYTQKSLSLSPGK

Kd: 17 nM
B2: CH2-CH3 fragment of human IgG1 with T350I-K370T-F405L, P01857 224-330 (protein, UniProt P01857-1 224-330, looked up, name in EU numbering, not shown: small tags and cut ends)
chain: B1 chain with T10I, K30T
